The results in this text go back to patent US20250114467A1 (SHANGHAI FUDAN ZHANGJIANG BIO PHARMACEUTICAL, published 2025).

Where a chain is given by its changes, count along the chain named.

Sequences and labels used below:
B1: ch15G2 (antibody, human IgG1, kappa, V domains shown)
VH: EVQLQQSGPELEKPGASVRISCKASGYSFTDYNMHWVKQSNGKSLEWIGNIDPYYGGTNYNQKFEGKATLTVDKSSSTAYMQLKSLTSEDSAVYYCARGGNNYGDYWGQGTTLTVSS
VL: DIQMTQSPASLAASVGETVTITCRASENIYYSLAWYQQKQGKSPQLLIFNANSLEDGVPSRFSGSGSGTQYSMKINSMQPEDTATYFCKQAYDVPWTFGGGTKLEIKR
notes: Chimeric: murine variable regions on human IgG1 heavy and kappa light constant regions; also called chimeric antibody 15G2
B2: ch32E8 (antibody, human IgG1, kappa, V domains shown)
VH: QVTLKESGPGILQPSQTLSLTCSFSGFSLSTSGMGVGWIRQPSGKGLEWLALIWWDDVKRYHPALKSRLTISKDTSSSQVFLKIASVDTADTATYYCARIAEVTGQVGLHYAMDYWGQGTSVTVSS
VL: QTVLTQSPAIMSASLGERVTMTCTASSSVNSSSLHWYQQKPGSSPKLWIYTTSNLASGVPARFSGSGSGTSYSLTISSMEAEDAATYYCHQFHRSPFTFGSGTKLEIKR
notes: Chimeric: murine variable regions on human IgG1 heavy and kappa light constant regions; also called chimeric antibody 32E8
B3: ch23G2 (antibody, human IgG1, kappa, V domains shown)
VH: QVQLQQSGPELVRPGVSVKISCKGSGYTFTDYAIHWVKQSRAKSPEWIGIVSTDSGKTSFNQKFKGKATMTVDKSSTTAYMELVRLTSEDSAIYYCARNPYYDYDGYAMDYWGQGTSVTVSS
VL: DIQMTQSSSYLSVSLGGRVTIICKASDHINNWLAWYQQKPGNAPRLIISGATSLETGVPSRFSGSGSGKDYTLSITSLQTEDVATYYCQQYWSIPYTFGGGTKLEIKR
notes: Chimeric: murine variable regions on human IgG1 heavy and kappa light constant regions; also called chimeric antibody 23G2
B4: ch10B1 (antibody, human IgG1, kappa, V domains shown)
VH: DVKLVESGGGLVKPGGSLKLSCAASGFTFSNYTISWVRQTPEKRLEWVATFSSGGSYTYYSDSVKGRFTISRDNAKNTLYLQMSSLKSEDTAMYYCSRDRRSDGYYHLYAMDYWGQGTSVTVSS
VL: DIQMTQTTSSLSASLGDRVTISCRASQDISHYLNWYQQKPDGTVKLLIYYTSRLHSGVPSRFSGSGSGTAYSLTISNLEQEDIATYFCQQGYTLPLTFGAGTKLELKR
notes: Chimeric: murine variable regions on human IgG1 heavy and kappa light constant regions; also called chimeric antibody 10B1
B5: ch19C7 (antibody, human IgG1, kappa, V domains shown)
VH: EVQLQQSGPELVRPGASVRMSCKASGYTFTYYVMHWVKQKPGLGLEWIGYINPYNDGTEYNEKFKGKATLTSDKSSSTAFMELSSLTSEDSAVYYCARWLLREYAMDYWGQGTSVTVSS
VL: DIQMTQSPASLSASVGETVTITCRASDNIHNYLAWYQQKQGKSPQLLVYNAKTLADGVPSRFSGSGSGTQYSLKINSLQPEDFGSYYCQHFWSTPWTFGGGTKLEIKR
notes: Chimeric: murine variable regions on human IgG1 heavy and kappa light constant regions; also called chimeric antibody 19C7
B6: ch26D9 (antibody, human IgG1, kappa, V domains shown)
VH: EVQLQQSGPELVKPGASVKMSCKASGYTFTTYVMHWVKQKPGQGLEWIGYINPYNDDTNYNEKFKGKATLTSDKSSSTAYMELSSLTSEDSAVYYCARWGLTGTGDYYAMDYWGQGTSVTVSS
VL: B5 VL with D27G, I29V, K42R, L46V, Q79L, S93T, K103T
notes: Chimeric: murine variable regions on human IgG1 heavy and kappa light constant regions; also called chimeric antibody 26D9
B7: ch33F11 (antibody, human IgG1, kappa, V domains shown)
VH: EVQLQQSGPELVKPGASVKISCKTSGYTFTENTMHWVKQSHGESLEWIGGINPRNGVTSYNQKFKGKATLTVDKSSSTAYMELRSLTSEDSAVYYCTNTYYRDYFDYWGQGTTLTVSS
VL: NIVMTQSPKSMSMSVGERVTLSCKASENVGTYVSWYQQKPDQSPKLLIYGASNRYTGVPDRFTGSGSPTDFTLTISRMQAEDLAHYYCGQTYTYPLTFGAGTKLELKR
notes: Chimeric: murine variable regions on human IgG1 heavy and kappa light constant regions; also called chimeric antibody 33F11
B8: ch1A5 (antibody, human IgG1, kappa, V domains shown)
VH: B7 VH with N32S, T33A, E43K, R54N, V57G, T58I, N61S, T97G, N98S, T99S
VL: B7 VL with K9E, P68A, D70H, R77S, M78V, H85D, Y87H, T91S, T93S
notes: Chimeric: murine variable regions on human IgG1 heavy and kappa light constant regions, expressed in 293F cells; also called chimeric antibody 1A5
B9: ch13C2 (antibody, human IgG1, kappa, V domains shown)
VH: EVKLVESGGGLVKPGGSLKLSCAASGFAFSSYDMSWVRQTPEKRLEWVATISSGGSYTYYPDSVKGRFTISRDNGRNTLYLQMSSLRSEDTALYYCASPLLGLRFAYWGQGTLVTVSA
VL: QAVVTQESALTTSPGETVTLTCRSSTGAVTTINYANWVQEKPDHLFTGLIGGTNNRAPGVPARFSGSLIGDKAALTITGAQTEDEAIYFCALYYSNHWVFGGGTKLTVLR
notes: Chimeric: murine variable regions on human IgG1 heavy and kappa light constant regions; also called chimeric antibody 13C2
B10: ch6A2 (antibody, human IgG1, kappa, V domains shown)
VH: EVQLQQSGPELVKPGASVKISCKASGYTFTDYNMNWVKQSQGKSLEWIGYIYPYNGGTGYNQKFKTKATLTVDNSSSTAYMEFRSLTSEDSAVYYCARSDPYYTMDYWGQGTSVTVSS
VL: IIVMTQTPKFLLVSAGDRVTISCKASQSVNNDVAWYQQKPGQSPKLLIYFTSNRFTGVPDRFTGSGYGTDFTFTISSVQAEDLAVYFCQQDHNSPYTFGGGTKLEIKR
notes: Chimeric: murine variable regions on human IgG1 heavy and kappa light constant regions; also called chimeric antibody 6A2

One test deals with T1, mouse DLL3 on overexpressing cells (plasmid pCMV3-mDLL3, MG58052-UT) (mouse, UniProt O88516 33-592).
T1 construct: whole, on cells
T1 sequence (looked up): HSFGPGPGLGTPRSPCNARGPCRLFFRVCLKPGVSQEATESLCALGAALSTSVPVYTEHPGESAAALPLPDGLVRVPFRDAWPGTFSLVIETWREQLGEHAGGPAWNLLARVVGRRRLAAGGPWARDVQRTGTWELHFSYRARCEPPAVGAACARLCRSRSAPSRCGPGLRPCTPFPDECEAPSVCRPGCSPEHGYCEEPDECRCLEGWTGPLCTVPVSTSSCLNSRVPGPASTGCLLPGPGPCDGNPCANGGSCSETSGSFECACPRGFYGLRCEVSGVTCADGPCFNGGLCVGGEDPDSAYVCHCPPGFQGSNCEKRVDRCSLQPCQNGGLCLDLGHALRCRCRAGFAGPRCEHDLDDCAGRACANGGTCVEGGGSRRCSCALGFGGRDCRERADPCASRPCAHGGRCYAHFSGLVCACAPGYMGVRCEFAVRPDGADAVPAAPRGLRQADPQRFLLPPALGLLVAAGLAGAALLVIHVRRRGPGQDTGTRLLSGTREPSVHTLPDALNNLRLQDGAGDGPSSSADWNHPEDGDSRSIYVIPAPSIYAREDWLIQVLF
Kind of test: flow cytometry on cells overexpressing mouse DLL3, APC goat anti-human IgG, MFI [left panel]. The method, then:
After washing with 80 μl of PBST (0.1% Tween20) for five times, 25 μl of HRP-labeled goat anti-human secondary antibody (Jackson, 1:10000) was added to each well and incubated at room temperature for 1 hour, discard the supernatant, and the wells were then washed seven times with 80 μl of PBST (0.1% Tween20). After adding 25 μl of TMB chromogen solution for 10 minutes, the reaction was terminated with 2M HCl, and the absorbance value at 450 nm was measured with a Microplate reader (purchased from Biotek, Elx808). […] The binding abilities of the chimeric antibodies to these cells were determined by flow cytometry to assess the cross-reactivity of the antibodies with different species. […] The chimeric antibodies, FDA027, and FDA031 were pre-diluted to 50 μg/ml, and further diluted in a 4-fold gradient across 8 concentration points, with 200 μL of the antibodies to be detected of different concentrations added to each well and incubated on ice for 30 minutes. […] After washing with PBS four times, 100 μL PBS was added to each well to resuspend the cells, which were then analyzed using CytoFLEX (Beckman).
(In general: Flow cytometry measures light scatter and fluorescence of single cells or particles in a stream.)
Take B1: the binding result is given as “no binding (tested: 50 µg/ml)”.

As to B2, the binding result was “no binding (tested: 50 µg/ml)”.

A further test deals with T2, human DLL3, His tag (acrobiosystems, DL3-H52H4) (human, UniProt Q9NYJ7 27-492).
T2 construct: Bought; also called human DLL3 protein; free DLL3; not shown: His tag
T2 sequence (looked up): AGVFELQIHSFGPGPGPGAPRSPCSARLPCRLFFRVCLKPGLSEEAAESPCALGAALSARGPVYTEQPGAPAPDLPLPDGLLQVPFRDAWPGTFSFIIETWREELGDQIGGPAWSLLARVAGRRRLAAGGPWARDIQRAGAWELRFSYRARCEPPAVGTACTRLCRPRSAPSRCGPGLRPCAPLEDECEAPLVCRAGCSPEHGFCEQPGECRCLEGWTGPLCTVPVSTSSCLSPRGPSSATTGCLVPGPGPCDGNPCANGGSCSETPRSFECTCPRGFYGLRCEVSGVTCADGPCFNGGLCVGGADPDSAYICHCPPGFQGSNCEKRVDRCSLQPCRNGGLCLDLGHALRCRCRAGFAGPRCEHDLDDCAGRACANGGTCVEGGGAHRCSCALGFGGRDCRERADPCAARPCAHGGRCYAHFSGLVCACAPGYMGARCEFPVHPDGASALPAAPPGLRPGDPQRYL
Kind of test: BLI (Octet 96e), antibody on sensor, DLL3-His 100-3.13 nM in solution. The method, then:
To assess the affinity of antibodies for human DLL3 protein, this study employed the BLI method to detect the binding kinetics curves of immobilized antibodies with free DLL3. The method was conducted according to the instrument's user manual (supplier: Fortebio, equipment model: Octet 96e). Briefly, AMC sensors were equilibrated for 60 s with Loading Buffer/Sample dilution buffer (1×PBS, pH7.4, with 0.1% BSA and 0.02% Tween-20) to obtain Baseline 1. The antibodies to be detected were diluted with Loading Buffer to a concentration of 10 ug/ml and bound to the equilibrated sensors, after which the sensors were re-equilibrated with Loading Buffer to obtain Baseline 2. The antibody-loaded sensors were then placed in human DLL3, His tag (supplier: acrobiosystems, catalog number: DL3-H52H4) diluted with Sample Dilution Buffer to concentrations ranging from 100 to 3.13 nM for 90 s to obtain the antibody-protein binding curve. Then, the sensors combined with antigen were placed in the Sample Dilution Buffer again and dissociated for 180 s, and the dissociation curve was obtained. The k-on and k-off values of the antibody-protein binding were calculated based on the binding and dissociation curves, and the KD values were calculated, with the results shown in Table 4.
For orientation: Biolayer interferometry detects binding as a change in optical thickness at a sensor tip.
By Kd is commonly meant the concentration at which binding is half-saturated. A low value points to a tighter complex. What is called koff is the rate constant with which the complex falls apart. High values mean a short-lived complex, low ones a long-lived complex. As usually defined, the kon is the rate constant with which the complex forms. A higher kon goes with faster complex formation. In turn, B3 registered a Kd of 0.0158 nM, a koff of 2.79e-05 s⁻¹ and a kon of 1.76e+06 M⁻¹ s⁻¹.

Molecule B4 had a Kd of 0.204 nM, a koff of 0.000279 s⁻¹ and a kon of 1.37e+06 M⁻¹ s⁻¹.

On to B5, for which the Kd was 0.739 nM, the koff is 0.000962 s⁻¹ and the kon came out at 1.3e+06 M⁻¹ s⁻¹.

Regarding B6, the Kd is 0.0381 nM, the koff is 6.58e-05 s⁻¹ and the kon came to 1.73e+06 M⁻¹ s⁻¹.

In the case of B7, the affinity, expressed as Kd, was 0.0521 nM; the koff was found to be 6.31e-05 s⁻¹; the kon was 1.21e+06 M⁻¹ s⁻¹.

In turn, B8 had a Kd of 0.0597 nM, a koff of 7.4e-05 s⁻¹ and a kon of 1.24e+06 M⁻¹ s⁻¹.

B1: binding was characterised by a dissociation constant (Kd) of 0.0702 nM, the koff turned out to be 0.000121 s⁻¹ and the kon was 1.72e+06 M⁻¹ s⁻¹.

Consider B9, for which binding was characterised by a dissociation constant (Kd) of 5.37 nM, the koff amounted to 0.0012 s⁻¹ and the kon is 223000 M⁻¹ s⁻¹.

The molecule B10 had a Kd of 0.466 nM, a koff of 0.000684 s⁻¹ and a kon of 1.47e+06 M⁻¹ s⁻¹.

In turn, B2 showed a Kd of 0.09 nM, an off-rate constant (koff) of 0.000134 s⁻¹ and a kon of 1.49e+06 M⁻¹ s⁻¹.
